Laboratory results: PMC12318543
Where two headings read alike, the source gives them in different places.

Columns and labels:
[1] = target: PtuA L81R mutant (Escherichia coli (strain ATCC 25922)); assay: mass photometry
[2] = target: PtuA (Escherichia coli Septu system) (Escherichia coli (strain ATCC 25922)); assay: cryo-EM structure
[3] = target: PtuA (Escherichia coli Septu system) (Escherichia coli (strain ATCC 25922)); assay: cryo-EM structure; remark: listed apart in the source

stoichiometry N [1]	stoichiometry N [2]	stoichiometry N [3]	Substance
2	–	–	PtuA L81R mutant (natural protein)
–	6	6	PtuA (Escherichia coli Septu system) (natural protein)
